# Measured values taken from the supplement of paper PMC9112550, “Optimization of the antimicrobial peptide Bac7 by deep mutational scanning” (BMC Biology, 2022).
# Tested on: Escherichia coli TOP10
# Experiment: shrunken log2 fold change of peptide-encoding DNA abundance (4.5 h post-induction vs induction); higher = less antimicrobial activity (less host growth inhibition)
# Details: time post-induction: 4.5 h; library: site-saturation at positions 5, 18, 19, 20
# 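Further: peptides expressed intracellularly from a pBAD plasmid library in pooled LB shake-flask culture, induced with 0.3% L-arabinose, DNA abundance read by NGS, three biological replicates, DESeq2 with apeglm shrinkage.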
row,Sequence,shrunken log2 fold change
1,RRIRARPPRLPRPRPRPMPWPRP,0.483
2,RRIRIRPPRLPRPRPRPWHIPRP,0.0542
3,RRIRKRPPRLPRPRPRPHMFPRP,-0.469
4,RRIRWRPPRLPRPRPRPWIQPRP,0.0861
5,RRIRGRPPRLPRPRPRPLIMPRP,0.206
6,RRIRMRPPRLPRPRPRPQACPRP,-0.12
7,RRIRQRPPRLPRPRPRPGYWPRP,-0.116
8,RRIRWRPPRLPRPRPRPECSPRP,0.966
9,RRIRARPPRLPRPRPRPPKMPRP,0.298
10,RRIRKRPPRLPRPRPRPKWCPRP,0.152
11,RRIRHRPPRLPRPRPRPHMRPRP,-0.00342
12,RRIRLRPPRLPRPRPRPCLQPRP,-0.207
13,RRIRWRPPRLPRPRPRPESVPRP,0.192
14,RRIRDRPPRLPRPRPRPWAQPRP,0.18
15,RRIRDRPPRLPRPRPRPLARPRP,0.479
16,RRIRMRPPRLPRPRPRPVVMPRP,-0.0363
17,RRIRFRPPRLPRPRPRPLWFPRP,0.00985
18,RRIRDRPPRLPRPRPRPIECPRP,0.279
19,RRIRGRPPRLPRPRPRPQHVPRP,-0.12
20,RRIRYRPPRLPRPRPRPVYFPRP,-1.42
21,RRIRERPPRLPRPRPRPFGKPRP,-0.01
22,RRIRNRPPRLPRPRPRPWGMPRP,-0.214
23,RRIRRRPPRLPRPRPRPRLKPRP,0.231
24,RRIRSRPPRLPRPRPRPITRPRP,-0.221
25,RRIRNRPPRLPRPRPRPDNPPRP,-0.168

row,Sequence,shrunken log2 fold change
1,RRIRIRPPRLPRPRPRPWMLPRP,-0.13
2,RRIRWRPPRLPRPRPRPNQQPRP,-0.0465
3,RRIRCRPPRLPRPRPRPSPKPRP,-0.326
4,RRIRHRPPRLPRPRPRPIETPRP,-0.00822
5,RRIRHRPPRLPRPRPRPIKAPRP,-0.157
6,RRIRHRPPRLPRPRPRPHITPRP,-0.857
7,RRIRCRPPRLPRPRPRPKNLPRP,-0.292
8,RRIRWRPPRLPRPRPRPTGTPRP,0.288
9,RRIRARPPRLPRPRPRPRIDPRP,0.74
10,RRIRWRPPRLPRPRPRPIVMPRP,-0.154
11,RRIRERPPRLPRPRPRPYRKPRP,-0.264
12,RRIRERPPRLPRPRPRPLMGPRP,0.247
13,RRIRNRPPRLPRPRPRPHQYPRP,-0.458
14,RRIRDRPPRLPRPRPRPAMIPRP,-0.129
15,RRIRTRPPRLPRPRPRPVVTPRP,0.0483
16,RRIRFRPPRLPRPRPRPPTLPRP,-0.0735
17,RRIRQRPPRLPRPRPRPGRQPRP,0.021
18,RRIRMRPPRLPRPRPRPACVPRP,0.428
19,RRIRNRPPRLPRPRPRPQFCPRP,-0.0424
20,RRIRGRPPRLPRPRPRPTVNPRP,0.597
21,RRIRYRPPRLPRPRPRPKKCPRP,-0.0883
22,RRIRWRPPRLPRPRPRPSPLPRP,-0.26
23,RRIRPRPPRLPRPRPRPKPDPRP,0.0452
24,RRIRHRPPRLPRPRPRPPPLPRP,0.651
25,RRIRPRPPRLPRPRPRPLPIPRP,-0.301

row,Sequence,shrunken log2 fold change
1,RRIRARPPRLPRPRPRPTGVPRP,0.439
2,RRIRFRPPRLPRPRPRPQHYPRP,-1.01
3,RRIRLRPPRLPRPRPRPSSLPRP,-0.39
4,RRIRLRPPRLPRPRPRPDWYPRP,-0.464
5,RRIRHRPPRLPRPRPRPMGEPRP,-0.0135
6,RRIRNRPPRLPRPRPRPMDAPRP,0.101
7,RRIRIRPPRLPRPRPRPWTTPRP,-0.102
8,RRIRWRPPRLPRPRPRPEVQPRP,0.69
9,RRIRHRPPRLPRPRPRPANGPRP,-0.0837
10,RRIRLRPPRLPRPRPRPNMHPRP,-0.565
11,RRIRVRPPRLPRPRPRPDPRPRP,0.395
12,RRIRYRPPRLPRPRPRPNQCPRP,-0.352
13,RRIRHRPPRLPRPRPRPFTEPRP,0.00246
14,RRIRDRPPRLPRPRPRPVGGPRP,2.15
15,RRIRPRPPRLPRPRPRPDVLPRP,-0.709
16,RRIRSRPPRLPRPRPRPYDDPRP,0.0208
17,RRIRLRPPRLPRPRPRPMEVPRP,-0.0152
18,RRIRNRPPRLPRPRPRPGRAPRP,0.177
19,RRIRTRPPRLPRPRPRPCTKPRP,0.0197
20,RRIRWRPPRLPRPRPRPFHGPRP,-0.229
21,RRIRCRPPRLPRPRPRPDRQPRP,0.00868
22,RRIRVRPPRLPRPRPRPNNLPRP,-0.534
23,RRIRGRPPRLPRPRPRPPAQPRP,1.4
24,RRIRLRPPRLPRPRPRPQAIPRP,-0.152
25,RRIRARPPRLPRPRPRPQFRPRP,-0.123

row,Sequence,shrunken log2 fold change
1,RRIRNRPPRLPRPRPRPEEVPRP,-0.00192
2,RRIRNRPPRLPRPRPRPKHAPRP,0.0877
3,RRIRGRPPRLPRPRPRPVNCPRP,0.139
4,RRIRPRPPRLPRPRPRPPCDPRP,0.182
5,RRIRMRPPRLPRPRPRPVSLPRP,0.422
6,RRIRSRPPRLPRPRPRPFQTPRP,-0.266
7,RRIRQRPPRLPRPRPRPCYRPRP,-0.00251
8,RRIRFRPPRLPRPRPRPHYCPRP,-0.197
9,RRIRFRPPRLPRPRPRPIADPRP,-0.0956
10,RRIRWRPPRLPRPRPRPYCEPRP,-0.481
11,RRIRHRPPRLPRPRPRPLDRPRP,-0.56
12,RRIRFRPPRLPRPRPRPRYTPRP,-0.15
13,RRIRVRPPRLPRPRPRPSISPRP,-0.357
14,RRIRNRPPRLPRPRPRPLAGPRP,0.148
15,RRIRWRPPRLPRPRPRPMKYPRP,-0.311
16,RRIRVRPPRLPRPRPRPTWSPRP,0.0201
17,RRIRPRPPRLPRPRPRPDDLPRP,-0.296
18,RRIRFRPPRLPRPRPRPFDDPRP,-0.488
19,RRIRDRPPRLPRPRPRPTVNPRP,0.0689
20,RRIRNRPPRLPRPRPRPKKRPRP,0.201
21,RRIRDRPPRLPRPRPRPGANPRP,0.19
22,RRIRIRPPRLPRPRPRPPTYPRP,-0.427
23,RRIRWRPPRLPRPRPRPVLSPRP,0.415
24,RRIRERPPRLPRPRPRPHPDPRP,0.0161
25,RRIRHRPPRLPRPRPRPNPGPRP,0.111

row,Sequence,shrunken log2 fold change
1,RRIRVRPPRLPRPRPRPMYTPRP,-0.23
2,RRIRTRPPRLPRPRPRPRDDPRP,0.107
3,RRIRFRPPRLPRPRPRPFRWPRP,0.178
4,RRIRSRPPRLPRPRPRPDWEPRP,-0.0106
5,RRIRCRPPRLPRPRPRPFSCPRP,0.0218
6,RRIRVRPPRLPRPRPRPYEYPRP,-0.137
7,RRIRVRPPRLPRPRPRPRSQPRP,0.25
8,RRIRIRPPRLPRPRPRPSVWPRP,-0.221
9,RRIRQRPPRLPRPRPRPFPDPRP,-0.108
10,RRIRARPPRLPRPRPRPNPHPRP,0.0863
11,RRIRMRPPRLPRPRPRPNAPPRP,-0.0273
12,RRIRNRPPRLPRPRPRPEMYPRP,-0.0311
13,RRIRLRPPRLPRPRPRPLSRPRP,-0.247
14,RRIRYRPPRLPRPRPRPPWCPRP,-0.338
15,RRIRTRPPRLPRPRPRPSLDPRP,-0.286
16,RRIRMRPPRLPRPRPRPYGDPRP,0.0122
17,RRIRDRPPRLPRPRPRPFPCPRP,0.0367
18,RRIRGRPPRLPRPRPRPVKLPRP,-0.0292
19,RRIRSRPPRLPRPRPRPLVMPRP,-0.316
20,RRIRSRPPRLPRPRPRPDWLPRP,0.153
21,RRIRHRPPRLPRPRPRPSMSPRP,-0.0246
22,RRIRERPPRLPRPRPRPTKEPRP,-0.465
23,RRIRWRPPRLPRPRPRPHYMPRP,-0.825
24,RRIRTRPPRLPRPRPRPVLMPRP,0.187
25,RRIRRRPPRLPRPRPRPLTVPRP,0.0344
